Source: patent US7067274B2, “Compositions and methods for the screening pro-apoptotic compounds” (Genentech, Inc., priority 2003, dated 2006)

Experiments:
MCF7 cells = assay: Inhibition of doxorubicin-induced apoptosis in transfected MCF7 cells; format: cell-based; conditions: MCF7 cells transiently transfected, doxorubicin 0.5 μg/ml
Description: MCF7 cells were transiently transfected with the reporter plasmid pCMV-βgal and either vector control alone or BIR domain constructs. Following transfection, cells were exposed to doxorubicin (adriamycin; 0.5 μg/ml), stained with X-gal and apoptosis assessed by counting live and dead transfected cells. Percentage apoptosis represents the mean value of at least four sample points and is representative of three independent experiments.

[1] = target: wild-type mature Smac protein; assay: Fluorescence polarization competition assay, mature Smac protein; format: binding, human; conditions: competition with 5 nM Hid-FAM probe, Ki from IC50
Description: A PCR product containing amino acids 56–239 of Smac/DIABLO (accession number SMAC_HUMAN) was cloned into the XbaI/XhoI sites of a pet21b+ (Novagen) generating a C-terminal His6 fusion. Pet21bSmac was transformed into Escherichia coli strain BL21(DE3) competent cells (Stratagene). Overnight cultures were diluted 1:100 and grown at 37° C. in LB media with 50 μg/ml carbenicillin to an A600 of 0.8 with vigorous shaking. Isopropyl-β-D-1-thiogalactopyranoside (IPTG) was added to a final concentration of 1 mM and cultures were grown overnight at 16° C. Cell pellets were resuspended in Buffer A (50 mM Tris (pH 8.0), 300 mM NaCl, 0.5 mM PMSF, 2 mM benzamidine, 5 mM β-mercaptoethanol) with 5 mM imidazole and placed on ice for 30 minutes. Cells were homogenized, microfluidized, and centrifuged at 15,000 rpm for 45 minutes. Supernatant was loaded onto a Ni-NTA agarose column (Qiagen™), washed with 10 column volumes Buffer A with 10 mM imidazole, and eluted with 10 column volumes Buffer A with 300 mM imidazole. Fractions containing Smac protein were pooled, concentrated and loaded on a Superdex™ 200 sizing column. Protein eluted over one column volume into 50 mM Tris (pH 7.6), 300 mM NaCl, 0.5 mM PMSF, 2 mM benzamidine and 5 mM DTT. Fractions containing Smac protein were pooled and dialyzed against 3 changes of buffer containing 50 mM Tris (pH 7.6), 0.5 mM PMSF, 2 mM benzamidine and 5 mM DTT. The dialyzed sample was loaded onto a Q-Sepharose™ FF column (Pharmacia) and eluted over a 10 column volume gradient from zero to 1 M NaCl in buffer 50 mM Tris (pH 7.6), 0.5 mM PMSF, 2 mM benzamidine and 5 mM DTT. The cDNA encoding full-length ML-IAP plus a N-terminal His6-tag was cloned into the pET15b(+) expression vector (Novagen). ML-IAP was expressed in E. coli strain BL21(DE3)pLysS. […] The protein concentration of purified proteins was determined from the absorbance at 280 nm based on the molar absorption coefficients calculated from the Edelhoch relationship (Edelhoch, (1967) Biochemistry 6: 1948–1954).
(§1) Samples were read after a 10-minute incubation. Fluorescence polarization values were plotted as a function of the antagonist concentration, and the IC50 values were obtained by fitting the data to a 4-parameter equation using Kaleidagraph™ software (Synergy software; Reading, Pa.). Inhibition constants (Ki) for the antagonists were determined from the IC50 values (Keating et al., (2000) Putting the pieces together: contribution of fluorescence polarization assays to small-molecule lead optimization. Proceedings of SPIE: In-Vitro Diagnostic Instrumentation.).
(§2) The binding affinity of the Hid-FAM probe for each of the BIR domains was determined directly using a fluorescence polarization-based assay and the result is shown graphically in FIG. 8.

[2] = target: Hid-FAM (5-carboxyflourescein-conjugated AVPFAK(5-FAM)K); assay: Fluorescence polarization affinity measurement with Hid-FAM probe; format: binding; conditions: 5 nM Hid-FAM, apparent Kd from EC50
Description: Polarization experiments were performed on an Analyst™ HT 96-384 (Molecular Devices Corp.). […] The reactions were read after an incubation time of 10 minutes at room temperature with standard cut-off filters for the fluorescein fluorophore (λex=485 nm; λem=530 nm) in 96-well black HE96 plates (Molecular Devices Corp.). Fluorescence polarization values were plotted as a function of the protein concentration, and the EC50 values were obtained by fitting the data to a 4-parameter equation using Kaleidagraph™ software (Synergy software, Reading, Pa.). The apparent Kd values were determined from the EC50 values.
as §2

[3] = target: Smac-9mer peptide (AVPIAQKSE); assay: Fluorescence polarization competition assay, Smac-9mer peptide; format: binding; conditions: competition with 5 nM Hid-FAM probe, Ki from IC50
Description: as §1

caspase-9 = target: T1, caspase-9 (Homo sapiens, UniProt P55211); assay: Caspase-9 co-immunoprecipitation in transfected 293T cells; format: cell-based; conditions: Flag-tagged BIR domain proteins, IP anti-Flag
T1 construct: expressed in transfected cells; host or cells: 293T cells
T1 sequence (P55211 1-315 limits assumed): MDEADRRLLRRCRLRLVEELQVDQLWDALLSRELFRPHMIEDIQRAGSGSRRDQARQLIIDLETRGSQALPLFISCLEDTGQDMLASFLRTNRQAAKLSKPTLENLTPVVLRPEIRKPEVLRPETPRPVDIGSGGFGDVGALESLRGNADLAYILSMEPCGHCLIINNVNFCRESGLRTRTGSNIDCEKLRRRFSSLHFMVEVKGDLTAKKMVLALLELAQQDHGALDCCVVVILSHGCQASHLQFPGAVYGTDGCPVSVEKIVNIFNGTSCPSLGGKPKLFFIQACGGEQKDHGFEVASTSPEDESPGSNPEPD
T1 sequence (P55211 331-416 limits assumed): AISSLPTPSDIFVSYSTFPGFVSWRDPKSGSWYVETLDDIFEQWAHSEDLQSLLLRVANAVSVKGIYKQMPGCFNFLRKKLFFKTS
Description: 293T cells were transiently transfected with caspase-9 and Flag-tagged BIR domain proteins or vector. After 40 h, cells were lysed in NP40 lysis buffer (120 mM Tris, 150 mM NaCl, 1% NP-40, 1 mM DTT and protease inhibitor cocktail) and lysates immunoprecipitated (IP) with anti-Flag antibody. Samples were then Western blotted with anti-caspase-9 and anti-Flag antibodies. […] When overexpressed, caspase-9 undergoes autocatalytic processing and it is the processed form that physically interacts with XIAP and ML-IAP BIR domains.

ΔCARD human caspase 9 = target: T2, ΔCARD human caspase 9 (Homo sapiens, UniProt P55211, D305A/E304A/E306A); assay: Determination of caspase-9 inhibitory constants (Ac-LEHD-AFC hydrolysis); format: biochemical; conditions: 300 nM ΔCARD caspase 9, 100 μM Ac-LEHD-AFC, 37° C.; read-out: Caspase-9 inhibition Ki(app)
T2 construct: made in house
T2 sequence (P55211 139-315 E304A/D305A/E306A limits assumed): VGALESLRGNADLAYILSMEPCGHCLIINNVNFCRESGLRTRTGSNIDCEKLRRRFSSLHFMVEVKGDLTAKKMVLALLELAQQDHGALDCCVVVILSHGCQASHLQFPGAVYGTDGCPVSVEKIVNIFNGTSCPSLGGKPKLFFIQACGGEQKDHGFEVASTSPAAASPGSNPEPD
T2 sequence (P55211 316-416 limits assumed): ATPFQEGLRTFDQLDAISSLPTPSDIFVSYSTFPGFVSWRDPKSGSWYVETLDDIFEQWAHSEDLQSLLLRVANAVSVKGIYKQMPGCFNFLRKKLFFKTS
Description: ΔCARD (caspase recruitment domain) human caspase 9 (lacking the first 138 residues) with Ala substitutions at residues 304 to 306 was produced as described previously (Boatright et al., (2003) Mol Cell 11: 529–541). The third BIR of […] (residues 252–348) was also prepared as described previously (Sun et al., (2000) J Biol Chem 275(43): 33777–81).
Determination of Caspase-9 Inhibitory Constants: Recombinant ΔCARD caspase 9 (300 nM final concentration in the assay) was preactivated in salt-free caspase buffer (20 mM PIPES, 10 mM EDTA, 0.1% CHAPS and 10% (w/v) sucrose, pH 7.2) for 15 min at 37° C. Following this, a range of inhibitor concentrations were preincubated with the enzyme for 20 min at 37° C. The assay was started by the addition of Ac-LEHD-AFC (100 μM final concentration) and measured kinetically for 30 min using an fmax Fluorescence Plate Reader (Molecular Devices) at an excitation wavelength of 405 nm and an emission wavelength of 510 nm. Reaction mixtures were thermostatically controlled at 37° C. The individual Ki values for the inhibitors [I] were determined from the uninhibited substrate hydrolysis rate (vo) and the inhibited rates (vi), so that a plot of (vo/vi)−1 against [I] gives Ki(app), the equilibrium inhibition constant in the presence of substrate (Salvesen and Nagase, (1989) Proteolytic enzymes: A practical approach. R. J. Beynon and J. S. Bond. Oxford, IRL Press: 83–104).

B1: ML-IAP-BIR: wild-type ML-IAP BIR domain construct, amino acids 63–179 of accession number BIR7_HUMAN (protein)
chain: TEEEEEEGAGATLSRGPAFPGMGSEELRLASFYDWPLTAEVPPELLAAAGFFHTGHQDKVRCFFCYGGLQSWKRGDDPWTEHAKWFPSCQFLLRSKGRDFVHSVQETHSQLLGSWDP
modifications: left off: small tags and cut ends
- inhibition of doxorubicin-induced apoptosis (MCF7 cells): confers resistance
- Ki [1]: 26 nM
- Kd [2]: 21 nM
- Ki [3]: 200 nM
- caspase-9 binding efficiency (co-immunoprecipitation, Western blot) (caspase-9): co-imnunoprecipitates processed caspase-9
- Ki (ΔCARD human caspase 9): 3200 nM
